Where a chain is given by its changes, count along the chain named. In names and notes the source's numbering stands. One block for each binder: values may come before it.
Experiments:
[1] = biological target: T1, CHIP (carboxyl terminus of heat shock 70-interacting protein), recombinant His-tagged wild type (human), Q9UNE7; test: SEC-MALS; GE Superdex 200 column with Wyatt DAWN HELEOS-II and T-Rex refractometer; 100 μl of 0.5 mg/ml of each sample loaded; oligomeric species of each CHIP protein; details: remark: other sources report otherwise
T1 chain: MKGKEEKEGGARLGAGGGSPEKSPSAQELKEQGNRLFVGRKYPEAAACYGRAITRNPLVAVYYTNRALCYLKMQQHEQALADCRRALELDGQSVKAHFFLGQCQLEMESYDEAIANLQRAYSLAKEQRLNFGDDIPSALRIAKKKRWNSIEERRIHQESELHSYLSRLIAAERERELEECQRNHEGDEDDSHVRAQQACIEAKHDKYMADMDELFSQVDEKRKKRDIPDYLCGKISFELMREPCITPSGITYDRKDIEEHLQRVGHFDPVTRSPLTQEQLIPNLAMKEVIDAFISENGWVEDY

[2] = biological target: the molecule itself; test: as above
[3] = biological target: T2, myc-CHIP-K30A (pcDNA3-mycCHIP-K30A) (human), Q9UNE7; test: native gel or EMSA; blue native PAGE (4-16% NativePAGE) of fresh lysates of transfected COS-7 cells, immunoblot with anti-myc; details: remark: other sources report otherwise
T2 chain: T1 chain with K30A

[4] = biological target: T3, myc-CHIP wild type (pcDNA3-mycCHIP) (human), Q9UNE7; test: as above; details: remark: other sources report otherwise
T3 chain: T1 chain

[5] = biological target: T4, CHIP-K30A, recombinant His-tagged (human), Q9UNE7; test: SEC-MALS; GE Superdex 200 column with Wyatt DAWN HELEOS-II and T-Rex refractometer; 100 μl of 0.5 mg/ml of each sample loaded; oligomeric species of each CHIP protein; details: remark: other sources report otherwise
T4 chain: T1 chain with K30A

percent of the protein as 2mer [1]: 69.7%
percent of the protein as 4mer [1]: 25.2%
percent of the protein as 6mer [1]: 4.8%
stoichiometry N [1]: 2
B1: CHIP (carboxyl terminus of heat shock 70-interacting protein), recombinant His-tagged wild type, Q9UNE7 1-303 (enzyme)
chain: T1 chain

B2: CHIP-T246M, recombinant His-tagged (enzyme, human, UniProt Q9UNE7 1-303, looked up)
chain: T1 chain with T246M
notes: CHIP (gene STUB1), full-length protein with the SCAR16 patient mutation p.T246M in the U-box; T246M is a mutation found in SCAR16 patients; source: Escherichia coli BL21(DE3), purified (HisTrap HP)
stoichiometry N [2]: 10 to 12

stoichiometry N [3]: 2
B3: myc-CHIP-K30A (pcDNA3-mycCHIP-K30A), Q9UNE7 1-303 (enzyme)
chain: T1 chain with K30A

stoichiometry N [4]: 2
B4: myc-CHIP wild type (pcDNA3-mycCHIP), Q9UNE7 1-303 (enzyme)
chain: T1 chain

percent of the protein as 2mer [5]: 80.4%
percent of the protein as 4mer [5]: 16.4%
percent of the protein as 6mer [5]: 2.6%
stoichiometry N [5]: 2
B5: CHIP-K30A, recombinant His-tagged, Q9UNE7 1-303 (enzyme)
chain: T1 chain with K30A
